Tested on: aroA gene-mutant E. coli strain AB2829
Experiment: In vivo complementation: growth on solid M63 restrictive medium
Format: cell-based
Design: key: −: failed to grow; +: able to grow
Conditions: for complementation condition, C-terminal: C-terminal fragment alone; for complementation condition, N-terminal: N-terminal fragment alone
Text: The pKU2100 plasmid constructed as described above and corresponding pACYC1184 plasmid were introduced separately or together into the strain AB2829 deficient in E. coli aroA gene. Then, the strain was streaked on solid M63 restrictive medium and cultured overnight to determine the growth.
In order to test if EPSPS achieves fragment complementation after in vivo expression, genes encoding EPSPS N-terminal peptides were constructed into pACYC184, and genes encoding EPSPS C-terminal peptides were constructed into pBR322 (see the section Materials and Methods for the detailed construction method). Afterwards, these plasmids were introduced into aroA gene-mutant E. coli strain AB2829. EPSPS activity of the protein fragments encoded by these genes was determined by the growth of the strains on M63 restrictive medium.
The pACYC184 and pBR322 plasmids are able to be expressed in the same bacterial cell since they have replicons p15A and ColE1 respectively. In this regard, a pACYC184 plasmid was co-introduced into aroA gene-mutant E. coli strain AB2829 together with a corresponding pKU2100 plasmid, wherein the N-terminal peptide encoded by the pACYC184 plasmid and C-terminal peptide encoded by the pKU2100 plasmid are the two fragments divided at the same site from EPSPS. The resulting strains are streaked on M63 restrictive medium, and cultured at 37° C.
The pBR322 plasmids constructed in section 3.5 a and their relevant pACYC1184 plasmids constructed in section 3.5 b were introduced respectively or together into E. coli strain AB2829 deficient in aroA gene. Then the strains were streaked on solid M63 restrictive medium and cultured overnight to test the growth.

Molecule | complementation condition, C-terminal | complementation condition, N-terminal
C260: E. coli EPSPS C-terminal fragment, residue 260 to C-terminus (protein, UniProt P0A6D3 260-427, looked up, fragment) VKVTGIGRNSMQGDIRFADVLEKMGATICWGDDYISCTRGELNAIDMDMNHIPDAAMTIATAALFAKGTTTLRNIYNWRVKETDRLFAMATELRKVGAEVEEGHDYIRITPPEKLNFAEIATYNDHRMAMCFSLVALSDTPVTILDPKCTAKTFPDYFEQLARISQAA | − | 
N238: E. coli EPSPS N-terminal fragment, N-terminus to residue 238 (protein, UniProt P0A6D3 1-238, looked up, fragment) MESLTLQPIARVDGTINLPGSKSVSNRALLLAALAHGKTVLTNLLDSDDVRHMLNALTALGVSYTLSADRTRCEIIGNGGPLHAEGALELFLGNAGTAMRPLAAALCLGSNDIVLTGEPRMKERPIGHLVDALRLGGAKITYLEQENYPPLRLQGGFTGGNVDVDGSVSSQFLTALLMTAPLAPEDTVIRIKGDLVSKPYIDITLNLMKTFGVEIENQHYQQFVVKGGQSYQSPGTYL |  | −
C299: E. coli EPSPS C-terminal fragment, residue 299 to C-terminus (protein, UniProt P0A6D3 299-427, looked up, fragment) GELNAIDMDMNHIPDAAMTIATAALFAKGTTTLRNIYNWRVKETDRLFAMATELRKVGAEVEEGHDYIRITPPEKLNFAEIATYNDHRMAMCFSLVALSDTPVTILDPKCTAKTFPDYFEQLARISQAA | − | 
N240: E. coli EPSPS N-terminal fragment, N-terminus to residue 240 (protein, UniProt P0A6D3 1-240, looked up, fragment) MESLTLQPIARVDGTINLPGSKSVSNRALLLAALAHGKTVLTNLLDSDDVRHMLNALTALGVSYTLSADRTRCEIIGNGGPLHAEGALELFLGNAGTAMRPLAAALCLGSNDIVLTGEPRMKERPIGHLVDALRLGGAKITYLEQENYPPLRLQGGFTGGNVDVDGSVSSQFLTALLMTAPLAPEDTVIRIKGDLVSKPYIDITLNLMKTFGVEIENQHYQQFVVKGGQSYQSPGTYLVE |  | −
N234: E. coli EPSPS N-terminal fragment, N-terminus to residue 234 (protein, UniProt P0A6D3 1-234, looked up, fragment) MESLTLQPIARVDGTINLPGSKSVSNRALLLAALAHGKTVLTNLLDSDDVRHMLNALTALGVSYTLSADRTRCEIIGNGGPLHAEGALELFLGNAGTAMRPLAAALCLGSNDIVLTGEPRMKERPIGHLVDALRLGGAKITYLEQENYPPLRLQGGFTGGNVDVDGSVSSQFLTALLMTAPLAPEDTVIRIKGDLVSKPYIDITLNLMKTFGVEIENQHYQQFVVKGGQSYQSP |  | −
N227: E. coli EPSPS N-terminal fragment, N-terminus to residue 227 (protein, UniProt P0A6D3 1-227, looked up, fragment) MESLTLQPIARVDGTINLPGSKSVSNRALLLAALAHGKTVLTNLLDSDDVRHMLNALTALGVSYTLSADRTRCEIIGNGGPLHAEGALELFLGNAGTAMRPLAAALCLGSNDIVLTGEPRMKERPIGHLVDALRLGGAKITYLEQENYPPLRLQGGFTGGNVDVDGSVSSQFLTALLMTAPLAPEDTVIRIKGDLVSKPYIDITLNLMKTFGVEIENQHYQQFVVKG |  | −
C228: E. coli EPSPS C-terminal fragment, residue 228 to C-terminus (protein, UniProt P0A6D3 228-427, looked up, fragment) GQSYQSPGTYLVEGDASSASYFLAAAAIKGGTVKVTGIGRNSMQGDIRFADVLEKMGATICWGDDYISCTRGELNAIDMDMNHIPDAAMTIATAALFAKGTTTLRNIYNWRVKETDRLFAMATELRKVGAEVEEGHDYIRITPPEKLNFAEIATYNDHRMAMCFSLVALSDTPVTILDPKCTAKTFPDYFEQLARISQAA | − | 
C235: E. coli EPSPS C-terminal fragment, residue 235 to C-terminus (protein, UniProt P0A6D3 235-427, looked up, fragment) GTYLVEGDASSASYFLAAAAIKGGTVKVTGIGRNSMQGDIRFADVLEKMGATICWGDDYISCTRGELNAIDMDMNHIPDAAMTIATAALFAKGTTTLRNIYNWRVKETDRLFAMATELRKVGAEVEEGHDYIRITPPEKLNFAEIATYNDHRMAMCFSLVALSDTPVTILDPKCTAKTFPDYFEQLARISQAA | − | 
C241: E. coli EPSPS C-terminal fragment, residue 241 to C-terminus (protein, UniProt P0A6D3 241-427, looked up, fragment) GDASSASYFLAAAAIKGGTVKVTGIGRNSMQGDIRFADVLEKMGATICWGDDYISCTRGELNAIDMDMNHIPDAAMTIATAALFAKGTTTLRNIYNWRVKETDRLFAMATELRKVGAEVEEGHDYIRITPPEKLNFAEIATYNDHRMAMCFSLVALSDTPVTILDPKCTAKTFPDYFEQLARISQAA | − | 
N224: E. coli EPSPS N-terminal fragment, N-terminus to residue 224 (protein, UniProt P0A6D3 1-224, looked up, fragment) MESLTLQPIARVDGTINLPGSKSVSNRALLLAALAHGKTVLTNLLDSDDVRHMLNALTALGVSYTLSADRTRCEIIGNGGPLHAEGALELFLGNAGTAMRPLAAALCLGSNDIVLTGEPRMKERPIGHLVDALRLGGAKITYLEQENYPPLRLQGGFTGGNVDVDGSVSSQFLTALLMTAPLAPEDTVIRIKGDLVSKPYIDITLNLMKTFGVEIENQHYQQFV |  | −
N298: E. coli EPSPS N-terminal fragment, N-terminus to residue 298 (protein, UniProt P0A6D3 1-298, looked up, fragment) MESLTLQPIARVDGTINLPGSKSVSNRALLLAALAHGKTVLTNLLDSDDVRHMLNALTALGVSYTLSADRTRCEIIGNGGPLHAEGALELFLGNAGTAMRPLAAALCLGSNDIVLTGEPRMKERPIGHLVDALRLGGAKITYLEQENYPPLRLQGGFTGGNVDVDGSVSSQFLTALLMTAPLAPEDTVIRIKGDLVSKPYIDITLNLMKTFGVEIENQHYQQFVVKGGQSYQSPGTYLVEGDASSASYFLAAAAIKGGTVKVTGIGRNSMQGDIRFADVLEKMGATICWGDDYISCTR |  | −
C225: E. coli EPSPS C-terminal fragment, residue 225 to C-terminus (protein, UniProt P0A6D3 225-427, looked up, fragment) VKGGQSYQSPGTYLVEGDASSASYFLAAAAIKGGTVKVTGIGRNSMQGDIRFADVLEKMGATICWGDDYISCTRGELNAIDMDMNHIPDAAMTIATAALFAKGTTTLRNIYNWRVKETDRLFAMATELRKVGAEVEEGHDYIRITPPEKLNFAEIATYNDHRMAMCFSLVALSDTPVTILDPKCTAKTFPDYFEQLARISQAA | − | 
N245: E. coli EPSPS N-terminal fragment, N-terminus to residue 245 (protein, UniProt P0A6D3 1-245, looked up, fragment) MESLTLQPIARVDGTINLPGSKSVSNRALLLAALAHGKTVLTNLLDSDDVRHMLNALTALGVSYTLSADRTRCEIIGNGGPLHAEGALELFLGNAGTAMRPLAAALCLGSNDIVLTGEPRMKERPIGHLVDALRLGGAKITYLEQENYPPLRLQGGFTGGNVDVDGSVSSQFLTALLMTAPLAPEDTVIRIKGDLVSKPYIDITLNLMKTFGVEIENQHYQQFVVKGGQSYQSPGTYLVEGDASS |  | −
C239: E. coli EPSPS C-terminal fragment, residue 239 to C-terminus (protein, UniProt P0A6D3 239-427, looked up, fragment) VEGDASSASYFLAAAAIKGGTVKVTGIGRNSMQGDIRFADVLEKMGATICWGDDYISCTRGELNAIDMDMNHIPDAAMTIATAALFAKGTTTLRNIYNWRVKETDRLFAMATELRKVGAEVEEGHDYIRITPPEKLNFAEIATYNDHRMAMCFSLVALSDTPVTILDPKCTAKTFPDYFEQLARISQAA | − | 
C246: E. coli EPSPS C-terminal fragment, residue 246 to C-terminus (protein, UniProt P0A6D3 246-427, looked up, fragment) ASYFLAAAAIKGGTVKVTGIGRNSMQGDIRFADVLEKMGATICWGDDYISCTRGELNAIDMDMNHIPDAAMTIATAALFAKGTTTLRNIYNWRVKETDRLFAMATELRKVGAEVEEGHDYIRITPPEKLNFAEIATYNDHRMAMCFSLVALSDTPVTILDPKCTAKTFPDYFEQLARISQAA | − | 
N259: E. coli EPSPS N-terminal fragment, N-terminus to residue 259 (protein, UniProt P0A6D3 1-259, looked up, fragment) MESLTLQPIARVDGTINLPGSKSVSNRALLLAALAHGKTVLTNLLDSDDVRHMLNALTALGVSYTLSADRTRCEIIGNGGPLHAEGALELFLGNAGTAMRPLAAALCLGSNDIVLTGEPRMKERPIGHLVDALRLGGAKITYLEQENYPPLRLQGGFTGGNVDVDGSVSSQFLTALLMTAPLAPEDTVIRIKGDLVSKPYIDITLNLMKTFGVEIENQHYQQFVVKGGQSYQSPGTYLVEGDASSASYFLAAAAIKGGT |  | −
